Results published in IntAct's records for PubMed 22115042.

Columns and labels:
dock3_mouse Dock3 [1] = molecular target: dock3_mouse Dock3 (UniProt Q8CIQ7)
dock3_mouse Dock3 [2] = molecular target: dock3_mouse Dock3 (UniProt Q8CIQ7); remark: listed apart in the source

Presenilin-2 (Homo sapiens), P49810 N141I, sequence (P49810 whole entry N141I): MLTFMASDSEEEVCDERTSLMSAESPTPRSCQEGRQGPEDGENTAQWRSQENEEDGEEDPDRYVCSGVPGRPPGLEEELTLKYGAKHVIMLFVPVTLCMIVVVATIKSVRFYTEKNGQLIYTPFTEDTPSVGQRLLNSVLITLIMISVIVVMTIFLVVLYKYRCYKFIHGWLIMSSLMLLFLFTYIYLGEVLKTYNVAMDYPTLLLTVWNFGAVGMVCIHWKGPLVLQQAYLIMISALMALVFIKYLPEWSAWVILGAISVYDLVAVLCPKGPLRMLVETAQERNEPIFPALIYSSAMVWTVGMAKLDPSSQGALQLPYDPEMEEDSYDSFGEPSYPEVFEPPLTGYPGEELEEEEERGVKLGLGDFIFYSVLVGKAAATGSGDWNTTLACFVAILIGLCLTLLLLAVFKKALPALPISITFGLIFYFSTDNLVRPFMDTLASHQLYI

| Substance | effect of a mutation on the interaction (dock3_mouse Dock3 [1]) | effect of a mutation on the interaction (dock3_mouse Dock3 [2]) |
| --- | --- | --- |
| Presenilin-1 (Homo sapiens) (from UniProt P49768) M146L | increasing interaction strength | – |
| Presenilin-1 (Homo sapiens) (from UniProt P49768) C410Y | increasing interaction strength | – |
| Presenilin-2 (Homo sapiens), P49810 N141I | – | with no effect |
